Experiment [1] addresses viral gp41 (HIV-1IIIB transmembrane protein on infected cells and virions) (HIV-1IIIB) (UniProt P04578). Put plainly: cell-based or functional assay.
Experiment [2] concerns the target viral gp41 of HIV-1 (on virions and HIV-1 infected cells) (HIV-1) (UniProt P03377). Put plainly: cell-based or functional assay.

This is an account of results in patent publication US7122190.

In the case of “M41 (maltose binding protein fused to the extracellular domain of HIV-1 gp41, residues 540-686) (from UniProt P03377 540-686)”, in experiment [1], the Cell fusion (IC90) was more than 50 µM and the HIV infectivity (IC90) is more than 16 µM.

Take “M41-P, M41 with an Ile to Pro mutation at position 578 (from UniProt P03377 540-686)”: in experiment [2], the 90% block of syncytia formation (HIV-1IIIB cell fusion assay) was 85 nM and the 90% neutralisation of HIV-1IIIB infection worked out at 70 nM.
